According to US10786536B2, “Cardiac neural crest cells and methods of use thereof” (VESTION, INC., priority 2013, dated 2020):
“Also recorded” adds a separate entry of the source.

Assays:
Type in all cases: cell-based, mouse
EGFP^(+) cells (NCC^kit) = assay: neonatal cKit^CreERT2/IRG myocardial explant culture with or without MSC feeders, live-cell quantification of EGFP^(+) cells
Protocol: To study the mechanisms controlling migration and proliferation in postnatal cardiac NCC^kit clones, 2-day old cKit^CreERT2/IRG neonates administered a single subcutaneous injection of 50 μl of tamoxifen. The next day, 3-day old postnatal hearts (PN3) were harvested, washed in ice-cold HBSS and cleaned from unwanted tissues under a stereomicroscope. They were then transferred in a tissue-cultured hood and, after additional washing steps with DMEM under sterile conditions, were minced into ˜1 mm^3 fragments and digested in a solution of DMEM/F12, 20% FBS, 1% penicillin/streptomycin and 200 units/ml Collagenase-Type II solution at 37° C. Following that, tissue explants were collected and washed twice with DMEM. Single tissue fragments were then picked under a stereomicroscope using a pipette, and cultured individually in single wells of gelatin-coated 24-well plates, with or without 1×10^5 MSCs feeders. Samples were fed every other day. The basic myocardial explant feeding medium consisted of DMEM/F12, 15% FBS, 1% penicillin/streptomycin, 1% β-mercaptoethanol, 1000 units/ml recombinant mouse LIF, 1 ng/ml recombinant mouse bFGF, and 0.1 mM nonessential amino acids. The impact of SCF was tested by supplementing the medium with 100 ng/ml recombinant murine SCF. For cKit neutralization, 100 ng/ml of rat anti-murine cKit antibody were supplemented to the medium. For assessing the role of Sdf1/Cxcr4, AMD3100 was supplemented to the medium, at a final concentration of 1 μM. Samples were then monitored daily, and clonal growth of EGFP^(+) cells was quantified every other day for 5-8 consecutive days, under a fluorescent microscope.
Myocardial explants from these animals were collected the following day, and were cultured in the presence or absence of MSC feeders. Swine MSCs were isolated and expanded from a single, healthy Yorkshire donor as previously described. Briefly, bone marrow was obtained from the iliac crest, and aspirates were passed through a density gradient to eliminate undesired cell types and were plated with 25 ml MEM Alpha media containing 20% fetal Bovine Serum in 162 cm^2 culture flasks. At 5-7 days after plating, non-adherent cells were washed away during medium changes and the remaining, plastic adherent, purified MSC population was expanded in culture. All used cells were harvested when they reached 80-90% confluence at passage 3-4, and inactivated for 3 h at 37° C. with 10 μg/ml of mitomycin C. Inactivated porcine MSC feeders were collected by trypsinization and cryopreserved in liquid nitrogen until use. For all experiments, MSCs feeders were seeded at a concentration of 2×10^5 MSCs/ml a day before use. The responses of EGFP^(+) cells under different culture conditions were monitored daily and quantified via live-cell fluorescence imaging every other day.
The effect of MSCs on NCC^kit migration was explored because recent studies reveal a chemotactic role of Sdf1/Cxcr4 axis on NCCs. Myocardial explant cultures were generated, as described above, and screened the emergence of EGFP^(+) cells in response to AMD3100, an inhibitor of the Sdf1/Cxcr4 axis. […] Thus, Sdf1/Cxcr4 axis regulates migration and differentiation of NCC^kit.

[1] = system: iPSC^kit-derived embryoid bodies; assay: in-vitro lineage tracing during cardiogenic differentiation of iPSC^kit-derived embryoid bodies pulsed with 4-OH tamoxifen
Description: First, to specifically address the relationship between CNC^kit and the cKit^+/Nkx2.5^+ lineage purified from mouse ES and iPSCs-derived cardiac mesoderm, iPSCs from cKit^CreERT2/IRG adult tail-tip fibroblasts (iPSC^kit) were established. iPSC^kit stably express DsRed with no leakage of EGFP (<30 passages). As with the cKit^CreERT2/IRG mice DsRed is irreversibly replaced by EGFP in iPSC^kit-derivatives upon Cre-mediated recombination, which occurs in response to treatment with 4-OH tamoxifen. […] Thus, iPSC^kit are suitable for in-vitro lineage tracing of cKit-expressing cells. Cardiomyocyte differentiation was induced by treatment of iPSC^kit-derived embryoid bodies (EB) with ascorbic acid as previously described (FIG. 17). Successful differentiation was reflected in the development of spontaneously contracting cardiomyocytes. To genetically trace whether any of the generated cardiomyocytes were progeny of cKit^+ progenitors, EBs were pulsed with 4-OH tamoxifen at selected time-points during differentiation and monitored the emergence of spontaneously beating EGFP^+ derivatives (FIG. 17). Indeed, EGFP^+ derivatives were detected in ˜45% of the spontaneously beating EBs, confirming previous findings that mouse pluripotent stem cells can be consistently directed to generate cardiomyocytes via a cKit^+ cardiomyocyte progenitor lineage (data not shown). […]

iPSC^kit = assay: quantitative gene-expression analysis during cardiogenic differentiation of iPSC^kit; settings: noggin-treated iPSC^kit

**Q.** `c1cc(CN2CCCNCCNCCCNCC2)ccc1CN1CCCNCCNCCCNCC1` [AMD3100] was tested. Which “differentiation of EGFP^(+) cells into spontaneously beating/contracting cells” value (EGFP^(+) cells (NCC^kit); AMD3100 1 μM, compared to non-AMD3100 treated groups) did it give?
**A.** massive differentiation into spontaneously contracting cardiomyocytes; also recorded: dramatic increase in the numbers of spontaneously beating EGFP^(+) cells

**Q.** What about the “migration of EGFP^(+) cells from the cultured explants” value (EGFP^(+) cells (NCC^kit); explants on MSC feeders) of the same molecule?
**A.** blocked the migration of EGFP^(+) cells; also recorded: blocking cell migration

**Q.** What about the “number / abundance of EGFP^(+) cells” value (EGFP^(+) cells (NCC^kit); explants on MSC feeders, compared to MSCs+SCF group, AMD3100 1 μM, anti-cKit antibody 100 ng/ml) of the same molecule?
**A.** significant reduction in the abundance of EGFP^(+) cells; also recorded: significantly decreased the number of EGFP^(+) cells

**Q.** Which “spontaneously beating EBs with EGFP^+ derivatives” value ([1]; cardiomyocyte differentiation induced by ascorbic acid) does the source give for `O=C1O[C@H]([C@@H](O)CO)C(O)=C1O` [ascorbic acid] here?
**A.** ~45%

B1: noggin: BMP antagonist used for noggin-mediated antagonism of BMP signaling (protein, UniProt Q13253 28-232, looked up)
Noggin: QHYLHIRPAPSDNLPLVDLIEHPDPIFDPKEKDLNETLLRSLLGGHYDPGFMATSPPEDRPGGGGGAAGGAEDLAELDQLLRQRPSGAMPSEIKGLEFSEGLAQGKKQRLSKKLRRKLQMWLWSQTFCPVLYAWNDLGSRFWPRYVKVGSCFSKRSCSVPEGMVCKPSKSVHLTVLRWRCQRRGGQRCGWIPIQYPIISECKCSC
**Q.** How did the “generation of EGFP^+ cardiomyocytes” value ([1]; BMP antagonism of iPSC^kit, EBs pulsed with 4-OH tamoxifen) turn out when B1 was run?
**A.** resulted in the generation of EGFP^+ cardiomyocytes

**Q.** And the “expression of the epicardial progenitor cell markers WT1 and Tbx18” value (iPSC^kit)?
**A.** transiently repressed

**Q.** And the “expression of cKit, Wnt1, Snai2, Pax3 and MITF-H” value (iPSC^kit; selected time-points)?
**A.** dramatic upregulation

B2: SCF: recombinant murine SCF supplemented to the medium at 100 ng/ml (protein)
chain: KEICGNPVTDNVKDITKLVANLPNDYMITLNYVAGMDVLPSHCWLRDMVIQLSLSLTTLLDKFSNISEGLSNYSIIDKLGKIVDDLVLCMEENAPKNIKESPKRPETRSFTPEEFFSIFNRSIDAFKDFMVASDTSDCVLSSTLGPEKDSRVSVTKPFMLPPVA
**Q.** Which results are given for B2?
**A.** increase in proliferative capacity of EGFP^(+) cells (EGFP^(+) cells (NCC^kit); 100 ng/ml recombinant murine SCF, MSCs present): 3.5 fold; proliferation of EGFP^(+) cells (EGFP^(+) cells (NCC^kit); SCF in the absence of MSCs): no significant differences were detected; migration of EGFP^(+) cells from the cultured explants (EGFP^(+) cells (NCC^kit); explants on MSC feeders): neither SCF nor cKit affected EGFP^(+) cell migration
